{"source": "paper PMC12136788", "key": {"[1]": {"biological_target": "T1, UNK (called full-length) (UniProt Q9C0B0 30-357)", "T1 sequence": "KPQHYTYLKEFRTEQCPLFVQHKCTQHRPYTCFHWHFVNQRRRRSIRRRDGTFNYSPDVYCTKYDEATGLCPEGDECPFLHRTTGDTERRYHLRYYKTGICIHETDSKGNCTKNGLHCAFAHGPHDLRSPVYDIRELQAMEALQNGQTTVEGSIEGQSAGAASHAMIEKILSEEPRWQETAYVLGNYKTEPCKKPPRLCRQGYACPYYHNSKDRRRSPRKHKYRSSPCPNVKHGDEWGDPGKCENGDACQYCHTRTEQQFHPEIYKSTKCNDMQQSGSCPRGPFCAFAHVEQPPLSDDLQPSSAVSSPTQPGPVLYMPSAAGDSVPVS", "test": "fluorescence polarization; 50 nM unlabeled N16 RNA; FP: 5 nM RNA, 20 mM Hepes (pH not given), 5 mM DTT, 137.5 mM NaCl, 0.01% Triton X-100, 10 ng/ul BSA, 2 U/ml SUPERase-In; 15 min at 4 C, read at 25 C; positional"}, "[2]": {"biological_target": "T2, MSI1 full-length (mouse, UniProt Q61474 1-362)", "T2 sequence (Q61474 whole entry)": "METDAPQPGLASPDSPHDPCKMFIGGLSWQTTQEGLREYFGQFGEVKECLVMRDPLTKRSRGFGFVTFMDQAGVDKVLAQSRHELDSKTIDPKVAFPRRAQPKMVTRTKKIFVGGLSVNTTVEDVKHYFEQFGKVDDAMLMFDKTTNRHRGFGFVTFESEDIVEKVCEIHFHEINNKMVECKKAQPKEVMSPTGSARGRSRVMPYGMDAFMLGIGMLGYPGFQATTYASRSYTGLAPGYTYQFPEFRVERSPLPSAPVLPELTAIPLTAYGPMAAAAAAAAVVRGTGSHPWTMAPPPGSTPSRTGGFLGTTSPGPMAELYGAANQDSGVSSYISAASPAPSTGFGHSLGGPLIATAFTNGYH", "test": "fluorescence polarization; FP: 5 nM RNA, 20 mM Hepes (pH not given), 5 mM DTT, 137.5 mM NaCl, 0.01% Triton X-100, 10 ng/ul BSA, 2 U/ml SUPERase-In; 15 min at 4 C, read at 25 C; positional"}, "[3]": {"biological_target": "MSI1 swap (mouse, UniProt Q61474 1-19+109-191+104-108+20-103+192-362, internal_change)", "sequence (Q61474 other isoform, or with tags, fused parts or gaps)": "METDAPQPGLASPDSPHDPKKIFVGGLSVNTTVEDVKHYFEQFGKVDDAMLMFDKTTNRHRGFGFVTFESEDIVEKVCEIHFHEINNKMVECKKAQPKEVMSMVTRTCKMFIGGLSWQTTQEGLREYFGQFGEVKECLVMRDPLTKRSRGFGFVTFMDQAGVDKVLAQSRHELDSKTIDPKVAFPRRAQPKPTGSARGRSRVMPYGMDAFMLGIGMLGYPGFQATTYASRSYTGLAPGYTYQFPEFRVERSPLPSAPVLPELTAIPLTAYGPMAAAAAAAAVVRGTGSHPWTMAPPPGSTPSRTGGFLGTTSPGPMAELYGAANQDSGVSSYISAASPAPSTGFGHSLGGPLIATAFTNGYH", "test": "fluorescence polarization; FP: 5 nM RNA, 20 mM Hepes (pH not given), 5 mM DTT, 137.5 mM NaCl, 0.01% Triton X-100, 10 ng/ul BSA, 2 U/ml SUPERase-In; 15 min at 4 C, read at 25 C; positional"}, "[4]": {"biological_target": "T2, MSI1 full-length", "test": "fluorescence polarization; FP: 5 nM RNA, 20 mM Hepes (pH not given), 5 mM DTT, 137.5 mM NaCl, 0.01% Triton X-100, 10 ng/ul BSA, 2 U/ml SUPERase-In; 15 min at 4 C, read at 25 C; positional", "remark": "listed apart in the source"}, "[5]": {"biological_target": "MSI2 full-length (UniProt Q96DH6 1-328)", "sequence (Q96DH6 whole entry)": "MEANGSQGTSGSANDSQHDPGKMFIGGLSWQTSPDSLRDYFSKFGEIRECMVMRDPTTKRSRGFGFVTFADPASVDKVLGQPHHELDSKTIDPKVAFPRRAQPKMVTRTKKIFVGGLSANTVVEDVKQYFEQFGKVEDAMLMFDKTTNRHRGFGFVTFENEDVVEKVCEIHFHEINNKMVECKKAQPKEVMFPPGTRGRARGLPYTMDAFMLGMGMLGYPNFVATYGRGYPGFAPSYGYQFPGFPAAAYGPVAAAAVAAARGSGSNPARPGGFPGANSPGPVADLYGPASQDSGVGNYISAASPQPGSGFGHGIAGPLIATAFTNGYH", "test": "fluorescence polarization; FP: 5 nM RNA, 20 mM Hepes (pH not given), 5 mM DTT, 137.5 mM NaCl, 0.01% Triton X-100, 10 ng/ul BSA, 2 U/ml SUPERase-In; 15 min at 4 C, read at 25 C; positional"}, "[6]": {"biological_target": "T1, UNK (called full-length)", "test": "fluorescence polarization; FP: 5 nM RNA, 20 mM Hepes (pH not given), 5 mM DTT, 137.5 mM NaCl, 0.01% Triton X-100, 10 ng/ul BSA, 2 U/ml SUPERase-In; 15 min at 4 C, read at 25 C; positional"}, "[7]": {"biological_target": "T1, UNK (called full-length)", "test": "fluorescence polarization; 50 nM unlabeled N16 RNA; FP: 5 nM RNA, 20 mM Hepes (pH not given), 5 mM DTT, 137.5 mM NaCl, 0.01% Triton X-100, 10 ng/ul BSA, 2 U/ml SUPERase-In; 15 min at 4 C, read at 25 C; positional", "remark": "listed apart in the source"}}, "data": [{"binder": "CCCCCCAAUUAGUUAAUA (ssRNA)", "note": "[CCC-UAG-AUA FP RNA]", "values": [{"measurement": "binding signal", "setting": "[1]", "value": "~1 fold vs UAG-AUA (little impact of upstream C)"}]}, {"binder": "CCCCCCAAUUAGAAAAAA (ssRNA)", "note": "[CCC-UAG FP RNA]", "values": [{"measurement": "binding signal", "setting": "[1]", "value": "~2 fold tighter than mono-UAG"}]}, {"binder": "UUAGUUAGUU (ssRNA)", "note": "[dual-UAG FP RNA]", "values": [{"measurement": "binding signal", "setting": "[2]", "value": "~10 fold tighter than mono-UAG"}, {"measurement": "binding signal", "setting": "[3]", "value": "~1 fold vs MSI1 on dual-UAG (no observable Kd difference)"}]}, {"binder": "UAGUUUAGUUUAGUU (ssRNA)", "note": "[tri-UAG FP RNA]", "values": [{"measurement": "Kd", "setting": "[4]", "value": 0.005, "unit": "µM"}, {"measurement": "Kd", "setting": "[5]", "value": 0.002, "unit": "µM"}]}, {"binder": "CCCCCCCCCCCCCCCC (ssRNA)", "note": "[polyC FP RNA]", "values": [{"measurement": "binding result", "setting": "[6]", "value": "no binding"}]}, {"binder": "AAAAAAAAUUAGAAAAAA (ssRNA)", "note": "[mono-UAG FP RNA]", "values": [{"measurement": "Kd", "setting": "[7]", "value": 0.4, "unit": "µM"}, {"measurement": "Kd", "setting": "[4]", "value": 0.126, "unit": "µM"}, {"measurement": "binding signal", "setting": "[3]", "value": "~2 fold weaker than MSI1 on mono-UAG"}]}, {"binder": "AAAAAUUAGUUAAUA (ssRNA)", "note": "[UAG-AUA FP RNA]", "values": [{"measurement": "Kd", "setting": "[7]", "value": 0.09, "unit": "µM"}]}, {"binder": "UUUUUUUUUUUUUUUU (ssRNA)", "note": "[polyU FP RNA]", "values": [{"measurement": "binding result", "setting": "[6]", "value": "no binding"}]}]}
